Series [1] deals with T1, Cdc11(E294C)-capped, otherwise Cys-less septin hetero-octamer (Cdc11-Cdc12-Cdc3-Cdc10-Cdc10-Cdc3-Cdc12-Cdc11) (S. cerevisiae, UniProt P32458 1-415; P32468 1-407; P32457 1-520; P25342 1-322, C43F | C137A | C138A | E294C | C40A | C278S | C124V | C253V | C279V | C266S, Alexa Fluor 555 maleimide (donor) or Alexa Fluor 647 maleimide (acceptor) on C294 (E294C); 0.7-0.8 dye molecules per subunit).
T1 construct: intact CTE (residues 303-415) restored; Cdc12, S. cerevisiae mitotic septin, Cys-less variant; Cdc3, S. cerevisiae mitotic septin, Cys-less variant; Cdc10, S. cerevisiae mitotic septin, Cys-less variant; The same preparation was labelled separately with donor (AF555) or acceptor (AF647); both are written as this one molecule; also called Cdc11^AF555; Cdc11^AF647; source: E. coli NiCo21 (DE3), …
The experiment in a line: FRET or BRET; 25 nM donor (AF555)-labelled octamers titrated with acceptor (AF647)-labelled octamers, serial dilutions from 100 nM; 45 mM KCl, 50 mM Tris-HCl pH 8.0; room temperature, 1 h equilibration; triplicate; PCA and curve fit; apparent Kd of end-to-end association of rods. As to conditions: both partners purified. In general terms: Bioluminescence resonance energy transfer reports proximity on the nanometre scale.

Series [2] addresses T1, Cdc11(E294C)-capped, otherwise Cys-less …. The series is described as above. The conditions noted are these: both partners purified. This is another data set of the same source.
For series [3], the target named is T2, Shs1(E344C)-capped, otherwise Cys-less septin hetero-octamer (Shs1-Cdc12-Cdc3-Cdc10-Cdc10-Cdc3-Cdc12-Shs1) (S. cerevisiae, UniProt Q07657 1-551; P32468 1-407; P32457 1-520; P25342 1-322, C29V | C148S | E344C | C40A | C278S | C124V | C253V | C279V | C266S, Alexa Fluor 555 maleimide (donor) or Alexa Fluor 647 maleimide (acceptor) on C344 (E344C)).
T2 construct: Cdc12, S. cerevisiae mitotic septin, Cys-less variant; Cdc3, S. cerevisiae mitotic septin, Cys-less variant; Cdc10, S. cerevisiae mitotic septin, Cys-less variant; Donor- and acceptor-labelled preparations are written as this one molecule; also called Shs1^AF555; Shs1^AF647; source: E. coli NiCo21 (DE3), subunits co-expressed, purified (IMAC, chitin-agarose flow-through, SEC), maleimide …
The series is described as above. As to conditions: both partners purified.

For series [4], the target named is T3, Shs1(Δ2–18/Δα0 E344C)-capped, otherwise Cys-less septin hetero-octamer (S. cerevisiae, UniProt Q07657 1-551; P32468 1-407; P32457 1-520; P25342 1-322, Δ2–18 | C29V | C148S | E344C | C40A | C278S | C124V | C253V | C279V | C266S, Alexa Fluor 555 maleimide (donor) on C344 (E344C)).
T3 construct: Cdc12, S. cerevisiae mitotic septin, Cys-less variant; Cdc3, S. cerevisiae mitotic septin, Cys-less variant; Cdc10, S. cerevisiae mitotic septin, Cys-less variant; also called Shs1 Δα0^AF555; Shs1(Δα0) complexes; source: E. coli NiCo21 (DE3), subunits co-expressed, purified (IMAC, chitin-agarose flow-through, SEC), maleimide dye-labelled; not shown: His6, N-terminal, kept; copies: 2 + 2 + 2 + 2
T3 sequence (Q07657 other isoform, or with tags, fused parts or gaps with the stated changes): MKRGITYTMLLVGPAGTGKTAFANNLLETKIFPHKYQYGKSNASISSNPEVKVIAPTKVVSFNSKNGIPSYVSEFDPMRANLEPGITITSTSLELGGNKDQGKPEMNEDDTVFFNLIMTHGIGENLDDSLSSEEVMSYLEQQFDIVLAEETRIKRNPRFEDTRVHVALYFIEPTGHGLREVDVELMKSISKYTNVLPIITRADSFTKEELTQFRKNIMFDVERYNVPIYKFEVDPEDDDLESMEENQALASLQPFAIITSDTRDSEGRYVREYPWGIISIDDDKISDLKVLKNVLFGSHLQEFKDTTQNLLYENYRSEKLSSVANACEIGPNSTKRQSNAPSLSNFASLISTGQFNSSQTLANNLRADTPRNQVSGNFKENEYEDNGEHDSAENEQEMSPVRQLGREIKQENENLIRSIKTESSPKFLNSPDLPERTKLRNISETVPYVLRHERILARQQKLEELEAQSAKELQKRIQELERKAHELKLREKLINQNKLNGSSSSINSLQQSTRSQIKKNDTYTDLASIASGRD
The series is described as above. The conditions noted are these: both partners purified.

Series [5] concerns the molecule itself. Described as above.
The target of series [6] is T1, Cdc11(E294C)-capped, otherwise Cys-less …. Kind of series: FRET or BRET; 15 nM Cdc11^AF555 octamers assembled into filaments at low salt, titrated with Bni5^AF647 (maximum 500 nM); apparent Kd. As to conditions: both partners purified.
Series [7] has the same target. The experiment in a line: FRET or BRET; 25 nM Cdc11^AF555 octamers assembled into filaments at low salt, titrated with Bni5^AF647 (maximum 500 nM); apparent Kd. The conditions noted are these: both partners purified.

B1: Shs1(E344C ΔCTE)-capped, otherwise Cys-less septin hetero-octamer (complex, S. cerevisiae)
chain 1: MSTASTPPINLFRRKKEHKRGITYTMLLVGPAGTGKTAFANNLLETKIFPHKYQYGKSNASISSNPEVKVIAPTKVVSFNSKNGIPSYVSEFDPMRANLEPGITITSTSLELGGNKDQGKPEMNEDDTVFFNLIMTHGIGENLDDSLSSEEVMSYLEQQFDIVLAEETRIKRNPRFEDTRVHVALYFIEPTGHGLREVDVELMKSISKYTNVLPIITRADSFTKEELTQFRKNIMFDVERYNVPIYKFEVDPEDDDLESMEENQALASLQPFAIITSDTRDSEGRYVREYPWGIISIDDDKISDLKVLKNVLFGSHLQEFKDTTQNLLYENYRSEKLSSVANACEIGP
chain 2: MSAATATAAPVPPPVGISNLPNQRYKIVNEEGGTFTVMLAGESGLGKTTFINTLFQTVLKRADGQQHRQEPIRKTVEIDITRALLEEKHFELRVNVIDTPGFGDNVNNNKAWQPLVDFIDDQHDSYMRQEQQPYRTKKFDLRVHAVLYFIRPTGHGLKPIDIETMKRLSTRANLIPVIAKADTLTAQELQQFKSRIRQVIEAQEIRIFTPPLDADSKEDAKSGSNPDSAAVEHARQLIEAMPFAIVGSEKKFDNGQGTQVVARKYPWGLVEIENDSHSDFRKLRALLLRTYLLDLISTTQEMHYETYRRLRLEGHENTGEGNEDFTLPAIAPARKLSHNPRYKEEENALKKYFTDQVKAEEQRFRQWEQNIVNERIRLNGDLEEIQGKVKKLEEQVKSLQVKKSHLK
chain 3: MSLKEEQVSIKQDPEQEERQHDQFNDVQIKQESQDHDGVDSQYTNGTQNDDSERFEAAESDVKVEPGLGMGITSSQSEKGQVLPDQPEIKFIRRQINGYVGFANLPKQWHRRSIKNGFSFNLLVVGPDGIGKTTLMKTLFNNDDIEANLVKDYEEELANDQEEEEGQGEGHENQSQEQRHKVKIKSYESVIEENGVKLNLNVIDTEGFGDFLNNDQKSWDPIIKEIDSRFDQYLDAENKINRHSINDKRIHAVLYFIEPTGHYLKPLDLKFMQSVYEKVNLIPVIAKSDILTDEEILSFKKTIMNQLIQSNIELFKPPIYSNDDAENSHLSERLFSSLPYAVIGSNDIVENYSGNQVRGRSYPWGVIEVDNDNHSDFNLLKNLLIKQFMEELKERTSKILYENYRSSKLAKLGIKQDNSVFKEFDPISKQQEEKTLHEAKLAKLEIEMKTVFQQKVSEKEKKLQKSETELFARHKEMKEKLTKQLKALEDKKKQLELSINSASPNVNHSPVPTKKKGFLR
chain 4: MDPLSSVQPASYVGFDTITNQIEHRLLKKGFQFNIMVVGQSGLGKSTLINTLFASHLIDSATGDDISALPVTKTTEMKISTHTLVEDRVRLNINVIDTPGFGDFIDNSKAWEPIVKYIKEQHSQYLRKELTAQRERFITDTRVHAILYFLQPNGKELSRLDVEALKRLTEIANVIPVIGKSDTLTLDERTEFRELIQNEFEKYNFKIYPYDSEELTDEELELNRSVRSIIPFAVVGSENEIEINGETFRGRKTRWSAINVEDINQSDFVYLREFLIRTHLQDLIETTSYIHYEGFRARQLIALKENANSRSSAHMSSNAIQR
modifications: Alexa Fluor 555 maleimide (donor) on C344 (E344C)
notes: Cdc12, S. cerevisiae mitotic septin, Cys-less variant; Cdc3, S. cerevisiae mitotic septin, Cys-less variant; Cdc10, S. cerevisiae mitotic septin, Cys-less variant; also called Shs1 ΔCTE^AF555; source: E. coli NiCo21 (DE3), subunits co-expressed, purified (IMAC, chitin-agarose flow-through, SEC), maleimide dye-labelled; not shown: His6, N-terminal, kept; copies: 2 + 2 + 2 + 2
For the molecule B1, the Kd in series [1] was found to be 30.4 nM.

B2: Cdc11(Δα0 E294C)-capped, otherwise Cys-less septin hetero-octamer (complex, S. cerevisiae)
chain 1: MRGITFTVMIVGQSGSGRSTFINTLFGQQVVDTSTTILLPTDTSTEIDLQLREETVELEDDEGVKIQLNIIDTPGFGDSLDNSPSFEIISDYIRHQYDEILLEESRVRRNPRFKDGRVHAALYLINPTGHGLKEIDVEFIRQLGSLVNIIPVISKSDSLTRDELKLNKKLIMEDIDRWNLPIYNFPFDEDEISDEDYETNMYLRTLLPFAIIGSNEVYEMGGDVGTIRGRKYPWGILDVEDSSISDFVILRNALLISHLHDLKNYTHEILYERYRTCALSGESVAAESIRPNLTKLNGSSSSSTTTRRNTNPFKQSNNINNDVLNPASDMHGQSTGENNETYMTREEQIRLEEERLKAFEERVQQELLLKRQELLQREKELREIEARLEKEAKIKQEE
chain 2: B1 chain 2
chain 3: B1 chain 3
chain 4: B1 chain 4
modifications: Alexa Fluor 555 maleimide (donor) or Alexa Fluor 647 maleimide (acceptor) on C294 (E294C)
notes: Cdc12, S. cerevisiae mitotic septin, Cys-less variant; Cdc3, S. cerevisiae mitotic septin, Cys-less variant; Cdc10, S. cerevisiae mitotic septin, Cys-less variant; also called Cdc11 Δα0^AF555; Cdc11 Δα0^AF647; source: E. coli NiCo21 (DE3), subunits co-expressed, purified (IMAC, chitin-agarose flow-through, SEC), maleimide dye-labelled; not shown: His6, N-terminal, kept; copies: 2 + 2 + 2 + 2
Regarding B2, the Kd was found to be 19.5 nM in series [2], 8.13 nM in series [3], 9.89 nM in series [4] and 33.2 nM in series [5].

B3: Bni5 (Bud neck-interacting protein 5), type II myosin-binding protein (natural protein, S. cerevisiae, UniProt P53890 1-448, looked up)
chain: MGLDQDKIKKRLSQIEIDINQMNQMIDENLQLVEPAEDEAVEDNVKDTGVVDAVKVAETALFSGNDGADSNPGDSAQVEEHKTAQVHIPTENEANKSTDDPSQLSVTQPFIAKEQITHTAIAIGDSYNSFVANSAGNEKAKDSCTENKEDGTVNIDQNRGEADVEIIENNDDEWEDEKSDVEEGRVDKGTEENSEIESFKSPMPQNNTLGGENKLDAELVLDKFSSANKDLDIQPQTIVVGGDNEYNHESSRLADQTPHDDNSENCPNRSGGSTPLDSQTKIFIPKKNSKEDGTNINHFNSDGDGQKKMANFETRRPTNPFRVISVSSNSNSRNGSRKSSLNKYDSPVSSPITSASELGSIAKLEKRHDYLSMKCIKLQKEIDYLNKMNAQGSLSMEDGKRLHRAVVKLQEYLDKKTKEKYEVGVLLSRHLRKQIDRGENGQFWIGTK
modifications: Alexa Fluor 647 maleimide on the native cysteines Cys-144, Cys-266 and Cys-375 (2.7 dye molecules per protein)
notes: Bni5, S. cerevisiae; the BNI5 ORF cloned behind His8 and a human rhinovirus 3C protease site in pH3c-LIC; also called Bni5^AF647; acceptor dye-labeled Bni5; source: E. coli NiCo21 (DE3), purified (IMAC, chitin-agarose, SEC), maleimide dye-labelled
For B3, the figures for the Kd in series [6] and in series [7] were 222 nM and 210 nM, respectively.
